Measured values taken from patent US12410253B2, “Compositions comprising anti-NRP2 antibodies” (aTyr Pharma, Inc., priority 2019, dated 2025).
“Also recorded” adds a separate entry of the source.

T1: Human NRP2 (aa23-855) (Homo sapiens, UniProt O60462)
T1 construct: Human NRP2 (aa23-855)
T1 sequence (O60462 23-855 isoform O60462-3): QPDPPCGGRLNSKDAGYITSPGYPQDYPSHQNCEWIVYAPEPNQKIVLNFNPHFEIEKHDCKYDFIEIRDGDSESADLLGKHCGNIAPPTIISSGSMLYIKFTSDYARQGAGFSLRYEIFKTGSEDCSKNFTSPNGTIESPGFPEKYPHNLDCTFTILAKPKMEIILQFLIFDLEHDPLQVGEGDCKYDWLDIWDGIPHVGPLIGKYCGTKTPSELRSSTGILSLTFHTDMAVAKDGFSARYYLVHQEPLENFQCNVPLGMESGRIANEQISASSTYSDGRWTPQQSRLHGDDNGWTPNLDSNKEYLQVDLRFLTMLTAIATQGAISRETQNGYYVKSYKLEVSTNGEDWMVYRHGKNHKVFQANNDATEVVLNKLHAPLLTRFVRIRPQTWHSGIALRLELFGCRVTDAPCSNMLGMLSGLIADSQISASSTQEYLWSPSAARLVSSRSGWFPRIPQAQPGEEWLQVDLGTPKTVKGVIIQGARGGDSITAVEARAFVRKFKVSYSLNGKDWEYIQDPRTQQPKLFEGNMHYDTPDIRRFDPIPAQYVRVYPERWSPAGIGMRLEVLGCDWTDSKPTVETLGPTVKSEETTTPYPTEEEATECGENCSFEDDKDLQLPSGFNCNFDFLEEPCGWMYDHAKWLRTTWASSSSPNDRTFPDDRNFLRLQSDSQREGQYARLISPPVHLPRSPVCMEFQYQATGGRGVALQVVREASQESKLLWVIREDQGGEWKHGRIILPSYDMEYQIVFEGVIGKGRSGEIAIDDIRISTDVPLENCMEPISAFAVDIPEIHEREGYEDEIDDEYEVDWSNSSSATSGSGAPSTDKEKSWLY

B1: aNRP2-28v2/4: mouse surrogate VEGF blocking antibody recognizing mouse NRP2, functional surrogate for aNRP2-10v10; CDRs SEQ ID NOs: 63-68 (antibody, V domains shown)
VH: QSVKESEGGLFKPTDTLTLTCTVSGFSLSTYSISWVRQAPGNGLEWIGIIGDAGGIIYATWAKSRSTITRSTALNTVTLKMTGLTAADTATYFCARDGTAFDIWGPGTLVTVSS
VL: AYDMTQTPASVEVVVGGTVTIKCQASQSIYSKLGWYQQKPGQPPKLLIYRASTLASGVSSRFKGSGSGTEYTLTISGVQCDDAATYYCQQDYSYINVDNIFGGGTEVVVK

Tests used:
MDA-MB-231 cells = settings: mouse, in vivo
Method: The dosing regimen was initiated when the mean tumor volume of all study animals reached 50-100 mm^3.
Treatment Regimen. Twenty (20) NSG mice (Jackson Laboratory, female, 5-6 wks old) were used in this study. The animals were assigned to two study groups of 10 mice randomly. The MDA-MB-231 cell line was prepared for injection as described in the Materials and Methods.
1.25×10^6 cancer cells in PBS with 20% matrigel were injected orthotopically into the mammary fat pad. The day on which the tumor was implanted is designated as Day 0.

Human NRP2 (aa23-855) = molecular target: T1, Human NRP2 (aa23-855); assay: SPR binding affinity of anti-NRP2 antibodies to human NRP2 antigen; settings: KD = kd/ka, Langmuir (1:1) model
Method: Anti-NRP2 antibody binding and affinity measurements. […] SPR experiments were conducted on a Bio-Rad ProteOn XPR36 Protein Interaction Array instrument. Biotinylated anti-human antibody (ThermoFisher Cat #7103302100) was immobilized on ProteOn NLC sensor chips. Anti-NRP2 antibodies were subsequently flowed over and captured by the anti-human antibody. Human NRP2 antigen protein was flowed over the captured antibody at varying concentrations (150, 50, 16.67, 5.56, 1.85 nM). The sensor chip surface was regenerated between each analyte run to remove anti-NRP2 antibodies and NRP2 protein. Data was double referenced against a surface with no anti-NRP2 antibody captured (immobilized anti-human antibody only) and a buffer only blank. Affinity constants were derived by globally fitting sensograms to a Langmuir (1:1) interaction model in the ProteOn manager software. For each anti-NRP2 antibody, data from the multiple NRP2 concentrations was fit as a single data set with dissociation rate constant (kd), association rate constant (ka) and Rmax values as global parameters. The reported binding affinity is the equilibrium dissociation constant (KD) calculated from kd/ka. • Running buffer: 50 mM HEPES, 300 mM NaCl, 5 mM CaCl2), 0.005% Tween-20, pH 7.4 • Immobilized antibody: CaptureSelect Human Fab-kappa Kinetics Biotin Conjugate, ThermoFisher Cat #7103302100 • Antigen: Human NRP2 (aa23-855) with C-terminal Avi-, Myc- and His-tags • Regeneration buffer: 10 mM glycine pH 2.0

B16-F10 tumors = assay: B16-F10 mouse melanoma in C57BL/6 mice; format: in vivo
Method: Animals and Animal husbandry. All mice were ear tagged for identification purpose. Upon arrival, animals were examined to ensure that they were healthy. The animals were housed in autoclaved solid floor polycarbonate cages. Housing and sanitation were performed according to industry standards. All animal handling was performed in a laminar flow hood located in a clean room. In all experiments, euthanasia criteria were set for an upper limit on subcutaneous tumor volume (usually >2,000 mm^3) and body weight loss (usually >20% body weight loss for an individual during the study). Animal work was performed at either Comparative Biosciences, Inc., 786 Lucerne Dr., Sunnyvale, CA 94085 or at aTyr Pharma, 3545 John Hopkins Court, Suite 250, San Diego, CA 92121. The test antibody dosing regimen was initiated once the mean tumor volume reached 50-100 mm^3. Tumor measurements were recorded two times a week until study termination, as described below.
Tumor monitoring. Once palpable, sub-cutaneous tumors were measured three times a week with a digital caliper. Tumor volumes were calculated using formula: Tumor Volume=length×width×width×1/2
Statistical analysis. Data are expressed as mean±SEM o. In experiments in which animals were euthanized due to tumor burden or body weight loss, the terminal tumor volume was carried forward for statistical analysis. […] Significance of difference over time was tested with a 2-way repeated measures ANOVA followed by Dunnett's post-hoc test. Group comparisons were conducted using 1-way ANOVA (parametric or Kruskal Wallis, as noted in the figure legends). A p value <0.05 was considered significant.
Cell culture and implantation. Mouse B16-F10 cell line was purchased from ATCC.
Treatment Regimen. Thirty (30) C57BL/6 mice (Charles River, female, 6-8 wks old) were used in this study. The animals were assigned to 3 study groups of 10 mice randomly, and housed as described in the Materials and Methods. The antibody dosing regimen is shown in Table E4 below; in brief animals received intraperitoneal injections of the control IgG antibody, positive control antibody (Bevacizumab), and anti-NRP2 antibody (as described in the Materials and Methods), administered according to the protocol below (Table E4).

4T1 tumors = assay: 4T1 model of spontaneous metastasis in Balb/c mice; format: in vivo
Method: The test antibody dosing regimen was initiated one day before cell injection and animal weights and tumor measurements were recorded three times a week until study termination.
Mouse 4T1 cell line was purchased from ATCC. […] 50,000 cancer cells in PBS were implanted subcutaneously into the right flank of each mouse.
Treatment Regimen. […] The animals were assigned to 3 study groups of 10 mice randomly, and housed as described in the Materials and Methods. The antibody dosing regimen is shown in Table E5 below; in brief animals received intraperitoneal injections of 10 mg/kg of the control IgG antibody, and aNRP2-28 (as described in the Materials and Methods), administered according to the protocol below (Table E5); starting one day before cancer cell implantation until termination on day 23).

[1] = test system: neo-lymphangiogenesis of the cornea; assay: Corneal alkali-burn injury model of neovascularization (LYVE-1 staining); format: in vivo, mouse; settings: IP on Day 0, 3, 7 and 10; Day 14; compared to IgG control; p=0.07
Method: Study Design & Treatment Regimen. The study consisted of 40 female C57BL/6 mice separated into four groups. Prior to study, animals were randomized into four groups, 10 mice per group. On Day 0, neovascularization (NV) of the cornea was induced from alkali-burn injury in the eyes of animals under anesthesia. Animals were treated intraperitoneally with control IgG (Group 1), aNRP2-28 (Group 2) and Bevacizumab (Group 3) on post-injury Day 0, 3, 7 and 10. During the in-life phase, animals were monitored with daily clinical observations and weekly body weights. Additionally, ocular assessments of injured eyes were scored and photos taken on post-injury Day 7 and Day 14. All animals were euthanized on Day 14. Injured eyes from all animals were removed and dissected. Whole-mounted corneas were fixed, stained with LYVE-1, and analyzed immunohistochemically to examine the efficacy of Test Articles.

Molecule | body weight (MDA-MB-231 cells) | Kd (Human NRP2 (aa23-855)) [nM] | terminal tumor weights (B16-F10 tumors; 25 mg/kg IP BIW) | toxicity from animal body weight measurements and observations (B16-F10 tumors; 25 mg/kg IP BIW) | tumor growth (tumor volume) (B16-F10 tumors; 25 mg/kg IP BIW, compared to IgG control group, p<0.05 on Day 14, 16 and 19) | anti-tumor activity relative to Bevacizumab (positive control) (B16-F10 tumors; aNRP2-28 25 mg/kg vs Bevacizumab 5 mg/kg, IP BIW) | toxicity from animal body weight measurements and observations (4T1 tumors; 10 mg/kg IP) | metastatic nodules in the lung at termination (4T1 tumors; 10 mg/kg IP days -1 to 23, compared to IgG control, p≤0.05) | neo-lymphangiogenesis, % Lyve-1+ area of cornea [1]
N.N.[Cl][Pt][Cl] [cisplatin, Cisplatin] | significant loss in body weight | – | – | – | – | – | – | – | –
B1 | – | 0.0599 | lowest terminal tumor weights | no evidence of toxicity | tumor growth inhibition | more potent anti-tumor activity | no evidence of toxicity | reduction in metastatic nodules in the lung | inhibits neo-lymphangiogenesis; also recorded: can inhibit neolymphangiogenesis
